# Results from publication PMC3531251, “Yeast importin-β is required for nuclear import of the Mig2 repressor” (BMC Cell Biology, 2012).
# T1: Kap60 (importin-α), purified from E. coli (S. cerevisiae, UniProt Q02821 1-542)
# T1 construct: also called purified Kap60; GST-Kap60 (before thrombin); source: E. coli BL21(DE3) pLysS, purified on glutathione-Sepharose, released with thrombin
# T1 sequence (looked up): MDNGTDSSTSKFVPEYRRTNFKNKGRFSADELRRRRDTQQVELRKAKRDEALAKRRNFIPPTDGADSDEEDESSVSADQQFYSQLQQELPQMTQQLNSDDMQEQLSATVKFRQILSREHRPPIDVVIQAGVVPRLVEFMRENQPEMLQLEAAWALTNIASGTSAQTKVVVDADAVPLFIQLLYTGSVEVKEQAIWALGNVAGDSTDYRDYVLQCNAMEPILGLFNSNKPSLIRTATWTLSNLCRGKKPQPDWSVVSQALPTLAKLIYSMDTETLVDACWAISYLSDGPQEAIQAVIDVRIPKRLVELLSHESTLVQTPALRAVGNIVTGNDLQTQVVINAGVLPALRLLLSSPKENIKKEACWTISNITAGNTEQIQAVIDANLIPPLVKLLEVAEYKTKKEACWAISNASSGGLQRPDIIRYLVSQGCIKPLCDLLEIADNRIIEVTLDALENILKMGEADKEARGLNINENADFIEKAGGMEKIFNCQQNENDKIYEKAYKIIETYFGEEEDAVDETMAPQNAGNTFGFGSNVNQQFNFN
# Biological target: T1, Kap60 (importin-α), purified from E. …
# Assay: pull-down; GST fusion on glutathione-Sepharose incubated with purified Kap60 and/or Kap95 (thrombin-released), no Gsp1; 1 h at 4°C in PBS; blot with anti-Kap60 or anti-Kap95
# Conditions: both partners purified
row,Binder,binding result
1,"GST-Mig2nls1 fusion protein (natural protein, Held on glutathione-Sepharose beads in the pull-downs; also called Mig2nls1-GST; MIG2K32AK33AR37A; source: E. coli BL21(DE3) pLysS, purified on glutathione-Sepharose) not shown",binds
2,"GST-Mig2 fusion protein (natural protein, Mig2 of Saccharomyces cerevisiae, PCR fragment cloned in the SalI site of pGEX-4T-1; also called Mig2-GST; pGEX/MIG2; source: E. coli BL21(DE3) pLysS, purified on glutathione-Sepharose) not shown",binds
